Here are results for five substances from US20160145343A1.

Assay [1] deals with MUC1 on MUC1+ human cancer cell lines and tumor tissue (abnormal, e.g. hypoglycosylated, tumor MUC1) (human) (UniProt P15941). As to the kind of experiment: immunohistochemistry, colon tissue microarray.
Assay [2] shares this target. As to the kind of experiment: immunohistochemistry, colon tissue microarray, benign samples.
Assay [3] has the same target. Put plainly: immunohistochemistry, colon tissue microarray, malignant samples.
Assay [4] has the same target. Put plainly: flow cytometry, MS+MUC1 cells. (In general: In flow cytometry, cells or beads pass a laser one at a time.)
For assay [5] the target is unchanged. Put plainly: flow cytometry, SKBR-3 cells.
For assay [6] the target is unchanged. Put plainly: flow cytometry, MCF-7 cells.
Assay [7] shares this target. As to the kind of experiment: flow cytometry, BT20 cells.
Assay [8] shares this target. Put plainly: flow cytometry, HPAF cells.
Assay [9] has the same target. As to the kind of experiment: flow cytometry, PANC-1 cells.
For assay [10] the target is unchanged. Put plainly: flow cytometry, HPAF cells, secondary antibody only.
Assay [11] has the same target. Put plainly: flow cytometry, MS+MUC1 cells, secondary antibody only.
The target is the same in assay [12]. Put plainly: flow cytometry, BT20 cells, secondary antibody only.
For assay [13] the target is unchanged. Put plainly: flow cytometry, SKBR-3 cells, secondary antibody only.
Assay [14] shares this target. Put plainly: flow cytometry, PANC-1 cells, secondary antibody only.
Assay [15] has the same target. Put plainly: flow cytometry, MCF-7 cells, secondary antibody only.

In the case of “HMPV (BD Biosciences), mouse anti-MUC1 antibody”, in assay [1], the samples MUC1+ by staining (of 6 benign samples) turned out to be 3 and the samples MUC1+ by staining (of 138 malignant samples) worked out at 114. Further, in assay [2], the MUC1+ samples stained (of 3 MUC1+ benign samples) was found to be 3. Besides, in assay [3], the MUC1+ samples stained (of 114 MUC1+ malignant samples) worked out at 114.

Consider “VU-4H5 (Abnova), mouse anti-MUC1 antibody”, for which the percentage of APC+ stained cells in assay [4] was found to be 24.6%; in assay [5], 24.1%; in assay [6], 27.8%; in assay [7], 32.9%; in assay [8], 6.99%; in assay [9], 54.3%. The MUC1+ samples stained (of 3 MUC1+ benign samples) in [2] amounted to 2. Besides, the MUC1+ samples stained (of 114 MUC1+ malignant samples) in assay [3] turned out to be 49.

Consider “VU-3C6 (Abcam), mouse anti-MUC1 antibody”, for which the percentage of APC+ stained cells is 99.4% in assay [4]; 99.9% in assay [5]; 98.7% in [6]; 92.3% in [7]; 98.4% in [8]; 98.8% in [9].

Consider “Hu-2nd. (APC-labeled secondary antibody only control for the human antibodies)”, for which the percentage of APC+ stained cells in assay [10] worked out at 1.02%; in [11], 0.55%; in [12], 1.17%; in assay [13], 0.96%; in [14], 2.01%; in assay [15], 1.73%.

For “M-2nd. (APC-labeled secondary antibody only control for the mouse antibodies)”, the percentage of APC+ stained cells in assay [10] is 0.77%; in assay [11], 0.46%; in assay [12] it was 1.74%; in [13], 1.67%; in assay [14], 3.45%; in [15], 1.39%.
